Test results reported in patent WO2017153426A1 (dated 2017).

Biological target: native TSLP (supernatant from stimulated human lung fibroblasts) (human, UniProt Q969D9 29-159, limits assumed)
Experiment: cell-based or functional assay

B1: DOM30h-440-81/86 (other)
chain: DIQMTQSPSSLSASVGDRVTITCRASRPIRNWLDWYQQKPGKAPKLLIWGASHLQSGVPSRFSGSGSGTDFTLTISSLQPEDFATYYCVQIGEDPVTFGQGTKVEIK
With B1 the “Geometric Mean IC50, inhibition of TSLP-induced pSTAT5 in SW756 cells” value was 0.86 nM.
